These results are taken from US6846636B1, “Methods and compositions for HDL holoparticle uptake receptor” (American National Red Cross, priority 1998, dated 2005).

Entries after “also recorded” stand apart in the source; their conditions may differ.

The subject of experiment [1] is RA/Bt2cAMP-treated F9 cells. Put plainly: DiI-HDL uptake by fluorescence-activated cell (FAC) scanning. It counts as cell-based, mouse. The settings on record: DiI-HDL 1 μg/ml, 37° C.; competitors preincubated; apolipoproteins and RAP 1 μM, apoE 0.25 μM, heparin 80 μM, IgGs 200 μg/ml, heparinase I 10 U/ml. As to the method:
Untreated and RA/Bt2cAMP-treated F9 cells (1-1.5×10^5 cells/cm^2) were grown for 18 hours in serum-free medium (DMEM, ITS, penicillin, and streptomycin). After washing the cell layers with the same serum-free medium, apoE-free DiI-HDL was added to a final concentration of 1 μg/ml and incubated for 1-2 hours at 37° C., 5% CO2. For competition experiments, competitors were added in serum-free medium and incubated for 0.5 hours at 37° C., 5% CO2 prior to the addition of the DiI-HDL. After the incubation, the medium was removed, cell layers washed with serum-free medium and the cells released with a 0.5 mg/ml trypsin-0.53 mM EDTA solution (Mediatech). The cells were then pelleted by centrifugation at 180×g and resuspended in DMEM. Twice more, the cells were pelleted by centrifugation at 180×g, and resuspended in dPBS. The cells were then subjected to FAC sorting on a FACStarplus instrument (Becton Dickinson, San Jose, Calif.).
RA/Bt2cAMP-treated and -untreated F9 cells (1-1.5×10^5 cclls/cm^2) were grown for 18 h in SFM. After washing the cell layers with SFM, DiI-HDL or DIO-LDL was added to a final concentration of 1 μg/ml and incubated for 2 h at 37° C., 5% CO2. For competition experiments, competitors (HDL, HDL2, HDL3 and their corresponding apoE-free forms), LDL, oxidized LDL, VLDL, §-VLDL, Lp(a) ([…]), apoA-I (28.3 μg/ml, 1 μM), apoA-II (I 7.3 μg/ml, 1 μM), apoC-I (6.6 μg/ml, 1 μM), apoC-III (8.8 μg/ml, 1 μM), apoJ (70 μg/ml, 1 μM), ovalbumin (45 μg/ml, 1 μM), RAP (39 μg/ml, 1 μM), apoE (8.5 μg/ml, 0.25 μM), heparin (80 μM, 250 U/ml) or IgGs (200 μg/ml) were added in SFM and incubated for 45 min at 37° C., 5% CO2 prior to the addition of the fluorescent lipoproteins. After the incubation, the medium was removed, cell layers were washed with SFM and the cells were released with trypsin-EDTA-proteinase K. The cells were washed once with DMEM, twice with dPBS, then subjected to FAC scanning on a FACStar Plus instrument (Becton Dickinson, San Jose, Calif.). Plotted data are from gated cells having fluorescence intensity values greater than the autofluorescence values of 99% of unlabeled cells. For some experiments, cell layers were treated with hepaninase I (10 U/ml) for 2 h prior to the addition of the DiI-HDL.

In experiment [2] the test system is RA/Bt2cAMP-treated F9 cells. The experiment is described as follows: DiI-HDL uptake by laser scanning confocal fluorescence microscopy. It counts as cell-based, mouse. Conditions: DiI-HDL 1 μg/ml, 2-4 h at 37° C., LDL 40 μg/ml, RAP 1 μM. On the procedure: Cells were plated into gelatin-coated wells of 8-well plastic chamber slides (Nalge Nunc, Naperville, Ill.) (4×10^4 cells/cm^2) and incubated at 37° C., 5% CO2 for 2 hours. The cells were washed with serum-free DMEM and incubated in serum-free DMEM containing ITS (insulin 5 μg/ml, transferrin 5 μg/ml, sodium selenite 5 ng/ml, Boehringer Mannheim, Germany), penicillin, and streptomycin for 18 hours at 37° C., 5% CO2. Prior to addition of DiI-HDL, the cells were incubated with serum-free DMEM containing unlabeled HDL3 (40 μg/ml) or RAP (1 μM) for 0.5 hour at 37° C., 5% CO2. DiI-HDL (1 μg/ml) in serum-free DMEM or in serum-free DMEM containing unlabeled HDL3 (40 μg/ml) or RAP (1 μM) was then incubated with the cells for 2-4 hours at 37° C., 5% CO2. The cells were washed three times with Dulbecco's phosphate buffered saline (dPBS), fixed in 3% formaldehyde in dPBS for 20 minutes at room temperature. […]
Cells were plated into gelatin-coated wells of plastic chamber slides (Nalge Nunc, Naperville, Ill.) (4×10^4 cells/cm^2) and incubated at 37° C., 5% CO2 for 2 h. […] The cells were washed with dPBS, fixed in 3% formaldehyde in dPBS for 20 min at 25° C. and analyzed using a BiORad MRC1024 laser scanning confocal microscope.

B1: RAP: 39 kDa chaperone protein that inhibits ligand binding to LDLR family members; recombinant human RAP (protein, UniProt P30533 35-357, looked up)
Alpha-2-macroglobulin …: YSREKNQPKPSPKRESGEEFRMEKLNQLWEKAQRLHLPPVRLAELHADLKIQERDELAWKKLKLDGLDEDGEKEARLIRNLNVILAKYGLDGKKDARQVTSNSLSGTQEDGLDDPRLEKLWHKAKTSGKFSGEELDKLWREFLHHKEKVHEYNVLLETLSRTEEIHENVISPSDLSDIKGSVLHSRHTELKEKLRSINQGLDRLRRVSHQGYSTEAEFEEPRVIDLWDLAQSANLTDKELEAFREELKHFEAKIEKHNHYQKQLEIAHEKLRHAESVGDGERVSRSREKHALLEGRTKELGYTVKKHLQDLSGRISRARHNEL
Regarding B1, the “DiI-HDL uptake in presence of competitor” value in experiment [1] is listed as “could be blocked; also recorded: completely blocked”. In addition, the “uptake of DiI-HDL (cell staining)” value in experiment [2] is “completely blocked”.
